Results on one protein are retold here after FireProtDB (doi:10.1016/j.bpc.2005.09.016).

The conditions of the data set: Aspergillus oryzae (strain ATCC 42149 / RIB 40), 25 °C, CD, Glycine hydrochloride 0.05 M, reversible: Yes, whole UniProt chain shown.

Several values for one entry are separate records, joined by “and”; a condition that tells them apart may be missing. Identical values can stand only once.

B1: Guanyl-specific ribonuclease T1 wild type, P00651 (protein)
chain: MMYSKLLTLTTLLLPTALALPSLVERACDYTCGSNCYSSSDVSTAQAAGYQLHEDGETVGSNSYPHKYNNYEGFDFSVSSPYYEWPILSSGDVYSGGSPGADRVVFNENNQLAGVITHTGASGNNFVECT
B1: where the note is “pH 3, Urea”, the denaturant m value is 1.57 kcal/mol/M and 1.73 kcal/mol/M and 2.04 kcal/mol/M; the “denaturant midpoint (higher = more stable)” value (“denaturant midpoint” below) was 3.8 M and 3.2 M and 3.1 M; the unfolding free energy is 6.01 kcal/mol and 5.54 kcal/mol and 6.36 kcal/mol. Moreover, where the note is “pH 5.5, GdnHCl”, the “denaturant midpoint” value is 4.3 M and 3.7 M; the unfolding free energy is 9.29 kcal/mol and 9.48 kcal/mol and 9.37 kcal/mol. Also, where the note is “pH 6, GdnHCl”, the “denaturant midpoint” value was 3.8 M and 3.7 M; the unfolding free energy was 10.2 kcal/mol.
